Data reported in patent US20140212436A1.

Tests used:
[1] = target: recombinant human FcγRIIb protein (human) (UniProt P31994); test: Biacore
FcγRIIaR (human) = FcγRIIaR (human) (UniProt P12318); test: Biacore
FcγRIIaR (human), sequence (P12318 34-217 H167R limits assumed): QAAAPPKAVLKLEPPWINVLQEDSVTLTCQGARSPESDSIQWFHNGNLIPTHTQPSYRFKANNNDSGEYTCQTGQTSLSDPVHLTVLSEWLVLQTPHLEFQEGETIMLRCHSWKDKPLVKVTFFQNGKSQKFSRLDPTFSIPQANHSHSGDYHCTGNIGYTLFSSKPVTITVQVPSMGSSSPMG

recombinant human FcγRIIb protein (human), sequence (P31994 46-217 limits assumed): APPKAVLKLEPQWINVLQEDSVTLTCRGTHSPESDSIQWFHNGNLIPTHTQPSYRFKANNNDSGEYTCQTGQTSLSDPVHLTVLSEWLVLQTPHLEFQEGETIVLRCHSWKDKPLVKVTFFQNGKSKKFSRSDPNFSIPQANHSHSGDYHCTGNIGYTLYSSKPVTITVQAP

A327D/L328Y/I332E (antibody)
Fold [1]: 2.31
Kd [1]: 0.636 µM

A327G (antibody)
Fold (FcγRIIaR (human)): 0.319
Kd (FcγRIIaR (human)): 2.69 µM
Fold [1]: 0.353
Kd [1]: 4.16 µM

A327Q (antibody)
Fold (FcγRIIaR (human)): 0.634
Kd (FcγRIIaR (human)): 1.35 µM
Fold [1]: 0.011
Kd [1]: 134 µM

A330K (antibody)
Fold [1]: 1.55
Kd [1]: 0.947 µM

A330S (antibody)
Fold [1]: 0.0635
Kd [1]: 23.1 µM

D265E (antibody)
Fold (FcγRIIaR (human)): 0.307
Kd (FcγRIIaR (human)): 2.79 µM
Fold [1]: 0.417
Kd [1]: 3.52 µM

G236A/G237A (antibody)
Fold [1]: 0.0578
Kd [1]: 25.4 µM

G236D/H268D (antibody)
Fold [1]: 11.6
Kd [1]: 0.126 µM

G236E/S267E (antibody)
Fold (FcγRIIaR (human)): 36.5
Kd (FcγRIIaR (human)): 0.0235 µM
Fold [1]: 11.4
Kd [1]: 0.129 µM

G236F (antibody)
Fold (FcγRIIaR (human)): 0.00859
Kd (FcγRIIaR (human)): 100 µM
Fold [1]: 0.0147
Kd [1]: 100 µM

G236H (antibody)
Fold (FcγRIIaR (human)): 0.135
Kd (FcγRIIaR (human)): 6.35 µM

G236K (antibody)
Fold (FcγRIIaR (human)): 0.00859
Kd (FcγRIIaR (human)): 100 µM
Fold [1]: 0.0147
Kd [1]: 100 µM

G236M (antibody)
Fold (FcγRIIaR (human)): 0.0859
Kd (FcγRIIaR (human)): 10 µM
Fold [1]: 0.147
Kd [1]: 10 µM

G236P (antibody)
Fold (FcγRIIaR (human)): 0.0859
Kd (FcγRIIaR (human)): 10 µM
Fold [1]: 0.147
Kd [1]: 10 µM

G236Q (antibody)
Fold (FcγRIIaR (human)): 0.0859
Kd (FcγRIIaR (human)): 10 µM
Fold [1]: 0.147
Kd [1]: 10 µM

G236R (antibody)
Fold (FcγRIIaR (human)): 0.00859
Kd (FcγRIIaR (human)): 100 µM
Fold [1]: 0.0147
Kd [1]: 100 µM

G236S/G237A (antibody)
Fold [1]: 0.0797
Kd [1]: 18.4 µM

G236V (antibody)
Fold (FcγRIIaR (human)): 0.106
Kd (FcγRIIaR (human)): 8.08 µM
Fold [1]: 0.0147
Kd [1]: 100 µM

G236W (antibody)
Fold (FcγRIIaR (human)): 0.0859
Kd (FcγRIIaR (human)): 10 µM
Fold [1]: 0.147
Kd [1]: 10 µM

G237E (antibody)
Fold (FcγRIIaR (human)): 0.00859
Kd (FcγRIIaR (human)): 100 µM
Fold [1]: 0.0147
Kd [1]: 100 µM

G237K (antibody)
Fold (FcγRIIaR (human)): 0.00859
Kd (FcγRIIaR (human)): 100 µM
Fold [1]: 0.0147
Kd [1]: 100 µM

G237P (antibody)
Fold (FcγRIIaR (human)): 0.00859
Kd (FcγRIIaR (human)): 100 µM
Fold [1]: 0.0147
Kd [1]: 100 µM

G237Q (antibody)
Fold (FcγRIIaR (human)): 0.0859
Kd (FcγRIIaR (human)): 10 µM
Fold [1]: 0.147
Kd [1]: 10 µM

G237S (antibody)
Fold (FcγRIIaR (human)): 0.081
Kd (FcγRIIaR (human)): 10.6 µM
Fold [1]: 0.147
Kd [1]: 10 µM

G237V (antibody)
Fold (FcγRIIaR (human)): 0.0342
Kd (FcγRIIaR (human)): 25.1 µM
Fold [1]: 0.147
Kd [1]: 10 µM

G237Y (antibody)
Fold (FcγRIIaR (human)): 0.902
Kd (FcγRIIaR (human)): 0.952 µM
Fold [1]: 0.33
Kd [1]: 4.45 µM

H268D/A327D (antibody)
Fold [1]: 7.68
Kd [1]: 0.191 µM

H268D/A327D/L328Y (antibody)
Fold [1]: 3.49
Kd [1]: 0.42 µM

H268D/K326D/L328Y (antibody)
Fold [1]: 18.6
Kd [1]: 0.0789 µM

H268D/L328F/I332E (antibody)
Fold [1]: 12.3
Kd [1]: 0.119 µM

H268D/L328W/I332E (antibody)
Fold [1]: 39.8
Kd [1]: 0.0369 µM

H268D/L328Y (antibody)
Fold [1]: 1.91
Kd [1]: 0.767 µM

H268D/L328Y/I332E (antibody)
Fold [1]: 4.89
Kd [1]: 0.3 µM

H268E/L328Y/I332E (antibody)
Fold [1]: 8.53
Kd [1]: 0.172 µM

H268N (antibody)
Fold (FcγRIIaR (human)): 1.79
Kd (FcγRIIaR (human)): 0.481 µM
Fold [1]: 1.17
Kd [1]: 1.25 µM

H268Q (antibody)
Fold (FcγRIIaR (human)): 1.58
Kd (FcγRIIaR (human)): 0.544 µM

K326D/L328Y/I332E (antibody)
Fold [1]: 2.65
Kd [1]: 0.553 µM

K326E (antibody)
Fold [1]: 6.09
Kd [1]: 0.241 µM

K326W (antibody)
Fold [1]: 3.04
Kd [1]: 0.483 µM

L234D/G236N/S267E (antibody)
Fold (FcγRIIaR (human)): 0.728
Kd (FcγRIIaR (human)): 1.18 µM
Fold [1]: 5.11
Kd [1]: 0.287 µM

L234E/H268D (antibody)
Fold [1]: 5.89
Kd [1]: 0.249 µM

L234G (antibody)
Fold (FcγRIIaR (human)): 0.0859
Kd (FcγRIIaR (human)): 10 µM
Fold [1]: 0.147
Kd [1]: 10 µM

L234I (antibody)
Fold (FcγRIIaR (human)): 0.0554
Kd (FcγRIIaR (human)): 15.5 µM
Fold [1]: 0.108
Kd [1]: 13.6 µM

L234K (antibody)
Fold (FcγRIIaR (human)): 0.00859
Kd (FcγRIIaR (human)): 100 µM
Fold [1]: 0.0147
Kd [1]: 100 µM

L234P (antibody)
Fold (FcγRIIaR (human)): 0.0141
Kd (FcγRIIaR (human)): 60.7 µM
Fold [1]: 0.0644
Kd [1]: 22.8 µM

L234Q (antibody)
Fold (FcγRIIaR (human)): 0.0372
Kd (FcγRIIaR (human)): 23.1 µM
Fold [1]: 0.147
Kd [1]: 10 µM

L234S (antibody)
Fold (FcγRIIaR (human)): 0.693
Kd (FcγRIIaR (human)): 1.24 µM
Fold [1]: 0.192
Kd [1]: 7.64 µM

L234V (antibody)
Fold (FcγRIIaR (human)): 0.134
Kd (FcγRIIaR (human)): 6.42 µM
Fold [1]: 0.456
Kd [1]: 3.22 µM

L234W/G236D/S239E/S267E (antibody)
Fold (FcγRIIaR (human)): 5.69
Kd (FcγRIIaR (human)): 0.151 µM
Fold [1]: 11.4
Kd [1]: 0.129 µM

L234W/H268D/L328Y (antibody)
Fold [1]: 5.92
Kd [1]: 0.248 µM
